{
  "source": "patent US20240002501A1",
  "key": {"[1]": {"molecular_target": "L1-CAM on L1-CAM(+) human tumor cells (human) (UniProt P32004)", "sequence (P32004 20-1257 limits assumed)": "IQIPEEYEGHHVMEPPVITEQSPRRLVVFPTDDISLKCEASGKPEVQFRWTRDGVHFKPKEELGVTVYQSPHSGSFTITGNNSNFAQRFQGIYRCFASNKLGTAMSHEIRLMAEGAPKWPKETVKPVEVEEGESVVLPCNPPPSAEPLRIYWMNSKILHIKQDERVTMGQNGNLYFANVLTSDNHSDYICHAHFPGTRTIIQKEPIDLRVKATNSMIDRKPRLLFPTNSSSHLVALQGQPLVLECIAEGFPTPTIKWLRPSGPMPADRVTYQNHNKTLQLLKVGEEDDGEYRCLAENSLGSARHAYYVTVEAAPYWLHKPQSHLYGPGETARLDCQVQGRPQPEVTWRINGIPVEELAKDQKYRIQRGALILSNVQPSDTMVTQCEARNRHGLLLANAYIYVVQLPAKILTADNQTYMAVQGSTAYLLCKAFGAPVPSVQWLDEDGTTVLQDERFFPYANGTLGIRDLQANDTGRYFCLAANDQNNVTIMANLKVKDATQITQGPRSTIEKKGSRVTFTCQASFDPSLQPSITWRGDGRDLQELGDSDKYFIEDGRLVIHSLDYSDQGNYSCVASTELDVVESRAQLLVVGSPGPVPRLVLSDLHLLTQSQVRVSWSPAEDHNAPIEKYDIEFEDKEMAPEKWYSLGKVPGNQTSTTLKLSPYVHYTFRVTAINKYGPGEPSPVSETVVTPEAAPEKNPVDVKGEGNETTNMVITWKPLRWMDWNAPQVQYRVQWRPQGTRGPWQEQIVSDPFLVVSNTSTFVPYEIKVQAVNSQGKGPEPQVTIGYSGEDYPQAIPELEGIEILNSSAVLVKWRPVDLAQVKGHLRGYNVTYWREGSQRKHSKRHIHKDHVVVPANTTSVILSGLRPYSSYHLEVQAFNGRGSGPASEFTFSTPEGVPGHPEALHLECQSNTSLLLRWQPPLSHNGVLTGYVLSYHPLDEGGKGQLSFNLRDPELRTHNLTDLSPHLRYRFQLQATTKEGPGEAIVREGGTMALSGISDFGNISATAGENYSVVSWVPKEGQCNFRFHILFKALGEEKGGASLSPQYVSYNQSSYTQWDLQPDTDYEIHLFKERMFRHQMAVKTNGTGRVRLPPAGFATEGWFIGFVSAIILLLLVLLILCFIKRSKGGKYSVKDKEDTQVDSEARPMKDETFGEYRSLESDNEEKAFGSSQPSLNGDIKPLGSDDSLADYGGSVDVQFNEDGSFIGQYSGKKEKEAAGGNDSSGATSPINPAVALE", "assay": "flow cytometry, MESO 11 mesothelioma cells (control)"}, "[2]": {"molecular_target": "L1-CAM on L1-CAM(+) human tumor cells (human) (UniProt P32004)", "assay": "flow cytometry, MESO 47 mesothelioma cells (control)"}, "[3]": {"molecular_target": "L1-CAM on L1-CAM(+) human tumor cells (human) (UniProt P32004)", "assay": "flow cytometry, VAMT mesothelioma cells (control)"}, "[4]": {"molecular_target": "L1-CAM on L1-CAM(+) human tumor cells (human) (UniProt P32004)", "assay": "flow cytometry, MESO 9 mesothelioma cells (control)"}, "[5]": {"molecular_target": "L1-CAM on L1-CAM(+) human tumor cells (human) (UniProt P32004)", "assay": "flow cytometry, MSTO-21H mesothelioma cells (control)"}, "[6]": {"molecular_target": "L1-CAM on L1-CAM(+) human tumor cells (human) (UniProt P32004)", "assay": "flow cytometry, NCI-H2052 mesothelioma cells (control)"}, "[7]": {"molecular_target": "L1-CAM on L1-CAM(+) human tumor cells (human) (UniProt P32004)", "assay": "flow cytometry, MESO 10 mesothelioma cells (control)"}, "[8]": {"molecular_target": "L1-CAM on L1-CAM(+) human tumor cells (human) (UniProt P32004)", "assay": "flow cytometry, MSTO mesothelioma cells (control)"}, "[9]": {"molecular_target": "L1-CAM on L1-CAM(+) human tumor cells (human) (UniProt P32004)", "assay": "flow cytometry, MESO 34 mesothelioma cells (control)"}, "[10]": {"molecular_target": "L1-CAM on L1-CAM(+) human tumor cells (human) (UniProt P32004)", "assay": "flow cytometry, JMN mesothelioma cells (control)"}, "[11]": {"molecular_target": "L1-CAM on L1-CAM(+) human tumor cells (human) (UniProt P32004)", "assay": "flow cytometry, HTB82 rhabdomyosarcoma cells (control)"}, "[12]": {"molecular_target": "L1-CAM on L1-CAM(+) human tumor cells (human) (UniProt P32004)", "assay": "flow cytometry, 8402 ALL cells (control)"}, "[13]": {"molecular_target": "L1-CAM on L1-CAM(+) human tumor cells (human) (UniProt P32004)", "assay": "flow cytometry, SKERT EWS cells (control)"}, "[14]": {"molecular_target": "L1-CAM on L1-CAM(+) human tumor cells (human) (UniProt P32004)", "assay": "flow cytometry, SKNCM NB cells (control)"}, "[15]": {"molecular_target": "L1-CAM on L1-CAM(+) human tumor cells (human) (UniProt P32004)", "assay": "flow cytometry, RH36 rhabdomyosarcoma cells (control)"}, "[16]": {"molecular_target": "L1-CAM on L1-CAM(+) human tumor cells (human) (UniProt P32004)", "assay": "flow cytometry, RH30 rhabdomyosarcoma cells (control)"}, "[17]": {"molecular_target": "L1-CAM on L1-CAM(+) human tumor cells (human) (UniProt P32004)", "assay": "flow cytometry, SKEPR EWS cells (control)"}, "[18]": {"molecular_target": "L1-CAM on L1-CAM(+) human tumor cells (human) (UniProt P32004)", "assay": "flow cytometry, RH41 rhabdomyosarcoma cells (control)"}, "[19]": {"molecular_target": "L1-CAM on L1-CAM(+) human tumor cells (human) (UniProt P32004)", "assay": "flow cytometry, HCC1954 breast CA cells (control)"}, "[20]": {"molecular_target": "L1-CAM on L1-CAM(+) human tumor cells (human) (UniProt P32004)", "assay": "flow cytometry, SKEAW EWS cells (control)"}, "[21]": {"molecular_target": "L1-CAM on L1-CAM(+) human tumor cells (human) (UniProt P32004)", "assay": "flow cytometry, RG143B osteosarcoma cells (control)"}, "[22]": {"molecular_target": "L1-CAM on L1-CAM(+) human tumor cells (human) (UniProt P32004)", "assay": "flow cytometry, A4573 EWS cells (control)"}, "[23]": {"molecular_target": "L1-CAM on L1-CAM(+) human tumor cells (human) (UniProt P32004)", "assay": "flow cytometry, M14 melanoma cells (control)"}, "[24]": {"molecular_target": "L1-CAM on L1-CAM(+) human tumor cells (human) (UniProt P32004)", "assay": "flow cytometry, NCI-H524 SCLC cells (control)"}, "[25]": {"molecular_target": "L1-CAM on L1-CAM(+) human tumor cells (human) (UniProt P32004)", "assay": "flow cytometry, HTB-41 A253 submaxillary salivary gland cells (control)"}, "[26]": {"molecular_target": "L1-CAM on L1-CAM(+) human tumor cells (human) (UniProt P32004)", "assay": "flow cytometry, SW480 CRC cells (control)"}, "[27]": {"molecular_target": "L1-CAM on L1-CAM(+) human tumor cells (human) (UniProt P32004)", "assay": "flow cytometry, SKELP EWS cells (control)"}, "[28]": {"molecular_target": "L1-CAM on L1-CAM(+) human tumor cells (human) (UniProt P32004)", "assay": "flow cytometry, IMR32 LUC NB cells (control)"}, "[29]": {"molecular_target": "L1-CAM on L1-CAM(+) human tumor cells (human) (UniProt P32004)", "assay": "flow cytometry, NCI-H69 SCLC cells (control)"}, "[30]": {"molecular_target": "L1-CAM on L1-CAM(+) human tumor cells (human) (UniProt P32004)", "assay": "flow cytometry, HTB67 melanoma cells (control)"}, "[31]": {"molecular_target": "L1-CAM on L1-CAM(+) human tumor cells (human) (UniProt P32004)", "assay": "flow cytometry, CHP-100 EWS cells (control)"}, "[32]": {"molecular_target": "L1-CAM on L1-CAM(+) human tumor cells (human) (UniProt P32004)", "assay": "flow cytometry, LAN-1 NB cells (control)"}, "[33]": {"molecular_target": "L1-CAM on L1-CAM(+) human tumor cells (human) (UniProt P32004)", "assay": "flow cytometry, HTB24 breast CA cells (control)"}, "[34]": {"molecular_target": "L1-CAM on L1-CAM(+) human tumor cells (human) (UniProt P32004)", "assay": "flow cytometry, NCI-H82 SCLC cells (control)"}, "[35]": {"molecular_target": "L1-CAM on L1-CAM(+) human tumor cells (human) (UniProt P32004)", "assay": "flow cytometry, CRL1427 osteosarcoma cells (control)"}, "[36]": {"molecular_target": "L1-CAM on L1-CAM(+) human tumor cells (human) (UniProt P32004)", "assay": "flow cytometry, RH28 rhabdomyosarcoma cells (control)"}, "[37]": {"molecular_target": "L1-CAM on L1-CAM(+) human tumor cells (human) (UniProt P32004)", "assay": "flow cytometry, THP-1 AML cells (control)"}, "[38]": {"molecular_target": "L1-CAM on L1-CAM(+) human tumor cells (human) (UniProt P32004)", "assay": "flow cytometry, SKNMM LUC NB cells (control)"}, "[39]": {"molecular_target": "L1-CAM on L1-CAM(+) human tumor cells (human) (UniProt P32004)", "assay": "flow cytometry, SKNMC EWS cells (control)"}, "[40]": {"molecular_target": "L1-CAM on L1-CAM(+) human tumor cells (human) (UniProt P32004)", "assay": "flow cytometry, TC71 EWS cells (control)"}, "[41]": {"molecular_target": "L1-CAM on L1-CAM(+) human tumor cells (human) (UniProt P32004)", "assay": "flow cytometry, SKMEL28 melanoma cells (control)"}, "[42]": {"molecular_target": "L1-CAM on L1-CAM(+) human tumor cells (human) (UniProt P32004)", "assay": "flow cytometry, U2OS osteosarcoma cells (control)"}, "[43]": {"molecular_target": "L1-CAM on L1-CAM(+) human tumor cells (human) (UniProt P32004)", "assay": "flow cytometry, TC32 EWS cells (control)"}, "[44]": {"molecular_target": "L1-CAM on L1-CAM(+) human tumor cells (human) (UniProt P32004)", "assay": "flow cytometry, 5838 EWS cells (control)"}, "[45]": {"molecular_target": "L1-CAM on L1-CAM(+) human tumor cells (human) (UniProt P32004)", "assay": "flow cytometry, HPB-T ALL cells (control)"}, "[46]": {"molecular_target": "L1-CAM on L1-CAM(+) human tumor cells (human) (UniProt P32004)", "assay": "flow cytometry, SKEFM EWS cells (control)"}, "[47]": {"molecular_target": "L1-CAM on L1-CAM(+) human tumor cells (human) (UniProt P32004)", "assay": "flow cytometry, MCF7 breast CA cells (control)"}, "[48]": {"molecular_target": "L1-CAM on L1-CAM(+) human tumor cells (human) (UniProt P32004)", "assay": "flow cytometry, ACC 104 M-07e AML cells (control)"}, "[49]": {"molecular_target": "L1-CAM on L1-CAM(+) human tumor cells (human) (UniProt P32004)", "assay": "flow cytometry, UM SCC 22B HNSCC cells (control)"}, "[50]": {"molecular_target": "L1-CAM on L1-CAM(+) human tumor cells (human) (UniProt P32004)", "assay": "flow cytometry, RH48 rhabdomyosarcoma cells (control)"}, "[51]": {"molecular_target": "L1-CAM on L1-CAM(+) human tumor cells (human) (UniProt P32004)", "assay": "flow cytometry, NCI-H345 SCLC cells (control)"}, "[52]": {"molecular_target": "L1-CAM on L1-CAM(+) human tumor cells (human) (UniProt P32004)", "assay": "flow cytometry, SKES-1 EWS cells (control)"}, "[53]": {"molecular_target": "L1-CAM on L1-CAM(+) human tumor cells (human) (UniProt P32004)", "assay": "flow cytometry, AU565 breast CA cells (control)"}, "[54]": {"molecular_target": "L1-CAM on L1-CAM(+) human tumor cells (human) (UniProt P32004)", "assay": "flow cytometry, HTB25 breast CA cells (control)"}},
  "data": [
    {"substance": "MOPC 21 (antibody)", "values": [
      {"measurement": "MFI", "setting": "[1]", "value": 5},
      {"measurement": "MFI", "setting": "[2]", "value": 5},
      {"measurement": "MFI", "setting": "[3]", "value": 5},
      {"measurement": "MFI", "setting": "[4]", "value": 5},
      {"measurement": "MFI", "setting": "[5]", "value": 5},
      {"measurement": "MFI", "setting": "[6]", "value": 5},
      {"measurement": "MFI", "setting": "[7]", "value": 5},
      {"measurement": "MFI", "setting": "[8]", "value": 5},
      {"measurement": "MFI", "setting": "[9]", "value": 5},
      {"measurement": "MFI", "setting": "[10]", "value": 5}
    ]},
    {"substance": "Rituxan (antibody)", "values": [
      {"measurement": "MFI", "setting": "[11]", "value": 5},
      {"measurement": "MFI", "setting": "[12]", "value": 4},
      {"measurement": "MFI", "setting": "[13]", "value": 5},
      {"measurement": "MFI", "setting": "[14]", "value": 5},
      {"measurement": "MFI", "setting": "[15]", "value": 5},
      {"measurement": "MFI", "setting": "[16]", "value": 5},
      {"measurement": "MFI", "setting": "[17]", "value": 3},
      {"measurement": "MFI", "setting": "[18]", "value": 5},
      {"measurement": "MFI", "setting": "[19]", "value": 5},
      {"measurement": "MFI", "setting": "[20]", "value": 5},
      {"measurement": "MFI", "setting": "[21]", "value": 5},
      {"measurement": "MFI", "setting": "[22]", "value": 5},
      {"measurement": "MFI", "setting": "[23]", "value": 5},
      {"measurement": "MFI", "setting": "[24]", "value": 3},
      {"measurement": "MFI", "setting": "[25]", "value": 5},
      {"measurement": "MFI", "setting": "[26]", "value": 5},
      {"measurement": "MFI", "setting": "[27]", "value": 5},
      {"measurement": "MFI", "setting": "[28]", "value": 4},
      {"measurement": "MFI", "setting": "[29]", "value": 4},
      {"measurement": "MFI", "setting": "[30]", "value": 5},
      {"measurement": "MFI", "setting": "[31]", "value": 5},
      {"measurement": "MFI", "setting": "[32]", "value": 6},
      {"measurement": "MFI", "setting": "[33]", "value": 6},
      {"measurement": "MFI", "setting": "[34]", "value": 5},
      {"measurement": "MFI", "setting": "[35]", "value": 5},
      {"measurement": "MFI", "setting": "[36]", "value": 5},
      {"measurement": "MFI", "setting": "[37]", "value": 5},
      {"measurement": "MFI", "setting": "[38]", "value": 4},
      {"measurement": "MFI", "setting": "[39]", "value": 5},
      {"measurement": "MFI", "setting": "[40]", "value": 5},
      {"measurement": "MFI", "setting": "[41]", "value": 5},
      {"measurement": "MFI", "setting": "[42]", "value": 5},
      {"measurement": "MFI", "setting": "[43]", "value": 5},
      {"measurement": "MFI", "setting": "[44]", "value": 5},
      {"measurement": "MFI", "setting": "[45]", "value": 5},
      {"measurement": "MFI", "setting": "[46]", "value": 5},
      {"measurement": "MFI", "setting": "[47]", "value": 5},
      {"measurement": "MFI", "setting": "[48]", "value": 5},
      {"measurement": "MFI", "setting": "[49]", "value": 5},
      {"measurement": "MFI", "setting": "[50]", "value": 5},
      {"measurement": "MFI", "setting": "[51]", "value": 3},
      {"measurement": "MFI", "setting": "[52]", "value": 5},
      {"measurement": "MFI", "setting": "[53]", "value": 5},
      {"measurement": "MFI", "setting": "[54]", "value": 5}
    ]}
  ]
}
